Experiments:
Assay in all cases: ITC
[1] = molecular target: BMAL1 TAD V602A I603F (mouse)
[2] = molecular target: BMAL1 TAD S605N L606Y (mouse)
[3] = molecular target: BMAL1 transactivation domain (TAD), residues 579-626 (mouse)

mouse CBP KIX domain, sequence (P45481 586-665): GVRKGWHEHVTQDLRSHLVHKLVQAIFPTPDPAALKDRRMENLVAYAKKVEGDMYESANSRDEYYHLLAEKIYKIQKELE

“mouse CBP KIX domain (from UniProt P45481 586-665) (domain or fragment)” showed a stoichiometry N [1] of 0.82, a stoichiometry N [2] of 1.06 and a stoichiometry N [3] of 0.74.

— paper PMC4456216
